Two molecules from patent US20240026022A1 (OSSIANIX, published 2024) can be followed below.

Usually Kd stands for a measure of binding affinity in units of concentration. In general, koff refers to the first-order rate constant of dissociation. Broadly, the kon is a measure of how fast the partners come together. What is called EC50 is the concentration at which the effect is half-maximal. One may read the EC50 (read off the curve) as the concentration at which the effect is half-maximal.

Assay [1] deals with T1, recombinant human TfR-1 (transferrin receptor-1) (human, UniProt P02786 89-760).
T1 construct: extracellular domain; In-house purified recombinant protein; also called hTfR-1; hTfR1
T1 sequence (P02786 89-760): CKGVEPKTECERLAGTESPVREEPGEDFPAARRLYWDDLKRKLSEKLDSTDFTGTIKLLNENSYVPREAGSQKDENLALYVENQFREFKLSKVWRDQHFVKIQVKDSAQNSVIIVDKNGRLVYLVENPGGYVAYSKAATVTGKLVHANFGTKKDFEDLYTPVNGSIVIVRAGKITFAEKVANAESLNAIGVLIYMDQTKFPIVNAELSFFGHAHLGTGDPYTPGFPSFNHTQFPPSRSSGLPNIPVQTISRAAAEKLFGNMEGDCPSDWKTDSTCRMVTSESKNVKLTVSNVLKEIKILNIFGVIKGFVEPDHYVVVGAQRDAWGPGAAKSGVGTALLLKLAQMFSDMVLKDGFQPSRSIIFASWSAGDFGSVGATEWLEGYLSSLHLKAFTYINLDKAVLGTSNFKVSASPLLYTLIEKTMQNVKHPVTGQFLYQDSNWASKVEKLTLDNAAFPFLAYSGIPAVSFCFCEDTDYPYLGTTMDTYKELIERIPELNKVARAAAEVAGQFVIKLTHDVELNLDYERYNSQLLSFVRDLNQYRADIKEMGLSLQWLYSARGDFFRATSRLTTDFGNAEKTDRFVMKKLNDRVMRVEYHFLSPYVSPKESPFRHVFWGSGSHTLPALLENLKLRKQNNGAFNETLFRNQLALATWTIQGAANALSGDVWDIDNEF
The experiment in a line: SPR.

In assay [2] the target is T2, recombinant cynomolgus TfR-1 (cynomolgus, UniProt H9EXL1 89-760 (rhesus entry)).
T2 construct: also called cTfR-1; cTfR1
T2 sequence (chain, as listed by the source): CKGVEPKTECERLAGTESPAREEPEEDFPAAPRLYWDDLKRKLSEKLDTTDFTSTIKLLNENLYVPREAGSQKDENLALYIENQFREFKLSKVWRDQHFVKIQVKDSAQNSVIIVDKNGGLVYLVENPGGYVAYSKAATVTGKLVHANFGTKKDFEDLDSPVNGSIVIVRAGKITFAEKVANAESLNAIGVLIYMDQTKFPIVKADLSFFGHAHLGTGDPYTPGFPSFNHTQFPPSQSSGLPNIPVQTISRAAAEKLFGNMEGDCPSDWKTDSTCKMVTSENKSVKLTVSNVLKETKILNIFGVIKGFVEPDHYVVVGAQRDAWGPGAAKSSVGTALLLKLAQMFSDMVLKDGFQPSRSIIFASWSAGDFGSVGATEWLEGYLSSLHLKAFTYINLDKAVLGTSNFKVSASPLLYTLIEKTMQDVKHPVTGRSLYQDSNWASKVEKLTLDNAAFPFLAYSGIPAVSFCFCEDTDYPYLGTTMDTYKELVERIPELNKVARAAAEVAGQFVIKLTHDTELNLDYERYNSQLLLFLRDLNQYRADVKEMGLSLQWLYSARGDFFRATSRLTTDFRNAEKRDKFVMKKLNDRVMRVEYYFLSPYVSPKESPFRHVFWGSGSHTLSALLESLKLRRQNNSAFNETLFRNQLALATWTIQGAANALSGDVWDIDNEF
The experiment in a line: SPR. On the technique in general: Surface plasmon resonance follows binding to a sensor surface in real time, without labels.

For assay [3], the target named is T3, human TfR-1 on the cell surface (hCMEC/D3 and SY-SH5Y cells) (human, UniProt P02786 1-760).
T3 construct: whole, on cells; also called cell surface TfR1; cell-surface hTfR1
T3 sequence (P02786 whole entry): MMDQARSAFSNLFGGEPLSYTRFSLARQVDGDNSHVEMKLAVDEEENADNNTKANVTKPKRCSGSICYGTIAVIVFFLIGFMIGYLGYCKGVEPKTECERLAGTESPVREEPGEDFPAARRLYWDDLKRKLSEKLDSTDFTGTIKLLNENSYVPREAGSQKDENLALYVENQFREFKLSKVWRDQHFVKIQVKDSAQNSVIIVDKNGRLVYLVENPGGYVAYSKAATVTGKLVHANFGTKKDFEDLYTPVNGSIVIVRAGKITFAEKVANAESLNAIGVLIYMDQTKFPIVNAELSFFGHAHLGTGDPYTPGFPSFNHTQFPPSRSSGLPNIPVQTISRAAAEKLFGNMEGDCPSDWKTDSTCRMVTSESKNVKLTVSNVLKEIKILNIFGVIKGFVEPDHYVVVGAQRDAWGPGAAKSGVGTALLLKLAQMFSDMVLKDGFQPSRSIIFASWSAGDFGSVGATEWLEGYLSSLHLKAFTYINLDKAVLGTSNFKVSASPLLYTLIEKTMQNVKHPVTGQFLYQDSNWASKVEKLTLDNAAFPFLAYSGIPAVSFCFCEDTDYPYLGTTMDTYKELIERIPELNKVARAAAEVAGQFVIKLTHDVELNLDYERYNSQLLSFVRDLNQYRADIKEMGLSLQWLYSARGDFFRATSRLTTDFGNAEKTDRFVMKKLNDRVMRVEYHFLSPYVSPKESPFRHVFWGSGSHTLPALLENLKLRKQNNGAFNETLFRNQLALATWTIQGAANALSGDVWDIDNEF
Briefly: flow cytometry on hCMEC/D3 cells, 1 h on ice, binding to cell surface TfR1. How it is done:
Flow cytometry. hCMEC/D3 cells (Weksler 2013) were seeded onto V-bottom 96-well plates at a density of 1×10⁴ cells/well. After blocking in PBS containing 10% BSA (FACS buffer) for 20 min on ice, cells were incubated with serial dilutions of TXP1. Cells were stained with propidium iodine (PI; Biolegend) for 20 min on ice, followed by anti-hFc conjugated to Alexa488 diluted 1:300 (Jackson ImmunoResearch) for 30 min on ice. After fixation in 4% PFA for 15 min on ice, the cells were analyzed on a CytoFlex flow cytometer (Beckman Coulter). Gating of cells stained with secondary antibody established the fluorescence threshold for the negative signal. The fluorescence intensity of approximately 1000 cells per condition was measured. […] EC50 values were calculated using a four parametric non-linear regression model.
Functional activity of the fully deimmunised variants was assessed using the human endothelial cell line hCMEC/D3 and the human neuronal cell line SY-SH5Y. Binding to hCMEC/D3 cells was assessed by incubation with serial antibody dilutions for 1 h on ice to avoid internalisation. The cells were fixed and binding to cell surface TfR1 was measured by flow cytometry. […] Internalisation via cell-surface hTfR1 was assessed using the hCMEC/D3 and SY-SH5Y cell lines by incubation with the antibodies for 1 hour at 37° C.
A general note: In flow cytometry, cells or beads pass a laser one at a time.

Assay [4] addresses T3, human TfR-1 on the cell surface …. The experiment in a line: flow cytometry on hCMEC/D3 cells, percent positive cells, on ice. The protocol:
FIG. 2. Binding of TXP1 to hCMEC/D3 cells by flow cytometry. Approximately 10,000 cells were incubated with serially diluted TXP1 for 1 hour on ice. TXP1 binding was detected using anti-human IgG Alexa488-conjugated secondary antibody. PI staining was used to exclude dead cells from the analysis. The cells were fixed and analyzed by flow cytometry. 1,000 cells per condition were acquired. Gating of cells stained with secondary antibody only allowed to set a fluorescence threshold for negative signal.
Flow cytometry. hCMEC/D3 cells (Weksler 2013) were seeded onto V-bottom 96-well plates at a density of 1×10⁴ cells/well. After blocking in PBS containing 10% BSA (FACS buffer) for 20 min on ice, cells were incubated with serial dilutions of TXP1. Cells were stained with propidium iodine (PI; Biolegend) for 20 min on ice, followed by anti-hFc conjugated to Alexa488 diluted 1:300 (Jackson ImmunoResearch) for 30 min on ice. After fixation in 4% PFA for 15 min on ice, the cells were analyzed on a CytoFlex flow cytometer (Beckman Coulter). Gating of cells stained with secondary antibody established the fluorescence threshold for the negative signal. The fluorescence intensity of approximately 1000 cells per condition was measured. Dead or dying cells were excluded from the analysis by propidium iodide staining. EC50 values were calculated using a four parametric non-linear regression model.

In a further assay the target is T4, HSA (human, UniProt P02768 25-609).
T4 construct: Negative control
T4 sequence (P02768 25-609): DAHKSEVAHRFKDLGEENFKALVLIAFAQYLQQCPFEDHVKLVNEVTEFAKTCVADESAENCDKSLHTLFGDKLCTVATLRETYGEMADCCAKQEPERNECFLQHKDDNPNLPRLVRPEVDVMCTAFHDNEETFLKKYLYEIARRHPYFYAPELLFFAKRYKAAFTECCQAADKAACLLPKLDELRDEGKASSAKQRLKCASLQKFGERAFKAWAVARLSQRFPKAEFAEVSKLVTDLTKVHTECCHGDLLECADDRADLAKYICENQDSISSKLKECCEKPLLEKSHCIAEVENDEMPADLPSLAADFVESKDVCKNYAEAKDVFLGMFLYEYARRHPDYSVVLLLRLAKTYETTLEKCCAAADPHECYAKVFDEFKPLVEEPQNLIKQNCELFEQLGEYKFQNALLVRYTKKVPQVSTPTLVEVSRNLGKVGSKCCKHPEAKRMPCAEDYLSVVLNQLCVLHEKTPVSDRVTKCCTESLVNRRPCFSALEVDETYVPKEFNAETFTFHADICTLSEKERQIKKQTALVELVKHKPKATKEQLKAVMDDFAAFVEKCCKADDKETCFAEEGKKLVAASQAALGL
The experiment in a line: ELISA, plate coated with HSA, detection with anti-hFc HRP and TMB. The protocol:
(§1) FIG. 1. Cross-species reactivity of TXP1 assessed by ELISA. Plates were coated with either mouse, human, cynomolgus or rat TfR-1. HSA was used as a negative control. Serial dilutions of TXP1 (a VNAR antibody) were added to the plate and binding was measured by end-point ELISA upon incubation with secondary anti-hFc HRP-conjugated antibodies and visualization with TMB.
(§2) TfR-1 binding ELISA. Nunc MaxiSorp plates were coated with 100 μl of 1 μg/ml of in-house purified recombinant human, mouse, rat and cynomolgus TfR-1 and incubated at 4° C. overnight. Plates were incubated with blocking buffer (2.5% non-fat dry milk in PBST) for 1 h at RT. Serially-diluted TXP1 was mixed with non-fat dry milk in PBST to a final concentration of 2.5% and incubated for 30 min. Blocked TXP1 solutions (100 μl) were transferred to the blocked plates and incubated for 1 hr. Plates were washed with PBST and incubated with anti-hFc HRP-conjugated antibody diluted 1:5,000 (Sigma) in blocking buffer for 30 min. Plates were washed and developed with SureBlue™ TMB substrate, the reaction stopped with 1% HCl and absorbance measured at 450 nm.
(An ELISA detects its analyte on a solid surface through an enzyme-linked reagent.)

In the next assay the target is T5, recombinant rat TfR-1 (rat, UniProt Q99376 87-761, limits assumed).
T5 construct: also called rTfR-1
T5 sequence (Q99376 87-761 limits assumed): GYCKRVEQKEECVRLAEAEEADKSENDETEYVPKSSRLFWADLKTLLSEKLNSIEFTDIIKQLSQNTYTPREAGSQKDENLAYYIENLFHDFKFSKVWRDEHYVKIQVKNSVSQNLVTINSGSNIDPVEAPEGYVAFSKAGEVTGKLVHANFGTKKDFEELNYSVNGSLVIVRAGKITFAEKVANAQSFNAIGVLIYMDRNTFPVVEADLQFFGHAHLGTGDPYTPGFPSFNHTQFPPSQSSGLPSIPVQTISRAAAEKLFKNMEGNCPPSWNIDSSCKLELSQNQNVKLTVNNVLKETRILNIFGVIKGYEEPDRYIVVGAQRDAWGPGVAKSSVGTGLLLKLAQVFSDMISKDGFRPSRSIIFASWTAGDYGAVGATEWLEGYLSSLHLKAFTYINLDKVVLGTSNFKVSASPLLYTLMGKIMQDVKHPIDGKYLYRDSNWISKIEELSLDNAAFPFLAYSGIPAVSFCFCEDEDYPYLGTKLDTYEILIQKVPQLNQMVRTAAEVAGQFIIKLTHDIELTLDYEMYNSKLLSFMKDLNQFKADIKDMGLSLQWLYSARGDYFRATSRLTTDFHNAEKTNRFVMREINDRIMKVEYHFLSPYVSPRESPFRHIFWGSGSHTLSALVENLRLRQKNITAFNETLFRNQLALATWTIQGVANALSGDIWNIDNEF
Briefly: ELISA, plate coated with recombinant rat TfR-1, detection with anti-hFc HRP and TMB. How it is done: as §1, §2

Another assay deals with T6, recombinant mouse TfR-1 (mouse, UniProt Q62351 89-763, limits assumed).
T6 construct: also called mTfR-1
T6 sequence (Q62351 89-763 limits assumed): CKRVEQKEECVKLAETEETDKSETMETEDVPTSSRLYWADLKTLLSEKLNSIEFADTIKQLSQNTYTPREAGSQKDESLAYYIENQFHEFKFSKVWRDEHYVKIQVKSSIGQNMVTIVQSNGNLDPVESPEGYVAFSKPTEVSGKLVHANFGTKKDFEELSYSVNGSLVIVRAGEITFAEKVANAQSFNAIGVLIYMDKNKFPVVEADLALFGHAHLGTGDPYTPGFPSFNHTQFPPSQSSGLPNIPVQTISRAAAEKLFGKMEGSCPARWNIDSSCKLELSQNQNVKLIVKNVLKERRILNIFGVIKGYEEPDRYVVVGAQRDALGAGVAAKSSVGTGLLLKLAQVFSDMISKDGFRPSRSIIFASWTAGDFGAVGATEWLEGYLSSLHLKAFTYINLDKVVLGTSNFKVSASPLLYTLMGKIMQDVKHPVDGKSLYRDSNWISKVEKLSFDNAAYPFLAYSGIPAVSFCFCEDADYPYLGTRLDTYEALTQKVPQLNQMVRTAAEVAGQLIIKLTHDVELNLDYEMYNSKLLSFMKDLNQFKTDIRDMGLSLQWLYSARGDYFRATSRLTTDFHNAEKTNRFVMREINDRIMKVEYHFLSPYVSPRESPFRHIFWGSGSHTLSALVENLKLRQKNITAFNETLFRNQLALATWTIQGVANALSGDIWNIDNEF
The experiment in a line: ELISA, plate coated with recombinant mouse TfR-1, detection with anti-hFc HRP and TMB. How it is done:
as §1, §2

In assay [5] the target is T1, recombinant human TfR-1 (transferrin …). Briefly: ELISA, plate coated with human TfR-1, anti-hFc HRP, 4-parameter fit; drawn table under the curves. How it is done: (§3) FIG. 15. Binding activity of TXP1 and deimmunized variants assessed by ELISA. Plates were coated with either human or cynomolgus or rat TfR-1. HSA was used as a negative control. Serial dilutions of TXP1 (a VNAR antibody) or the variants as Fc fusions were added to the plate and binding was measured by end-point ELISA upon incubation with secondary anti-hFc HRP-conjugated antibodies and visualization with TMB.
as §2

Assay [6] has as its target T2, recombinant cynomolgus TfR-1. The experiment in a line: ELISA, plate coated with cynomolgus TfR-1, anti-hFc HRP, 4-parameter fit; drawn table under the curves. How it is done:
as §3, §2

Assay [7] addresses T1, recombinant human TfR-1 (transferrin …). The experiment in a line: ELISA on hTfR-1 captured by plate-coated human Tf (receptor already bound to Tf), detection with anti-hFc HRP and TMB. The protocol:
Competition ELISAs. For competition studies, MaxiSorp plates were coated with 100 μl of human Tf, at the concentration of 5 μg/ml overnight at 4° C. Plates were washed with phosphate-buffered saline containing 0.1% Tween20 (PBST) and blocked for 1 h with 2.5% BSA in PBST. Wells were incubated with 50 μl of hTfR-1 at 10 μg/ml for 1 h at RT and washed before adding serially diluted TXP1 and A06 VNAR antibodies for 1 h at RT. Following washing, 100 μl of 1:5,000 anti-hFc HRP-conjugated antibody (Sigma) diluted in 2.5% BSA in PBST was added and incubated for 1 h. Plates were washed and developed with SureBlue™ TMB substrate, the reaction stopped with 1% HCl and absorbance measured at 450 nm.
TXP1 competition with Tf for binding to TfR-1 was assessed by ELISA. Plates coated with Tf were used to capture hTfR-1 before incubation with serial dilutions of TXP1, A06 VNAR antibody or isotype control G12 VNAR antibody. While TXP1 and A06 VNAR antibody bind with similar nM KD in the absence of Tf (Table 5), when TfR-1 was bound to Tf, TXP1 but not the A06 VNAR antibody was still able to bind the receptor (FIG. 4).

B1: TXP1D4 (deimmunized variant VNAR-r2d4 fused to human IgG1 Fc) (Fc fusion)
VNAR: ARVDQTPQTATKETGESLTINCVLRDSNCALSSTYWYRKKSGSTNEENISKGGRKYVETVESGSKSFSLKINDLTVEDSGTYRCNVVGTWCMSWRDVSGDGTVVTVNA
notes: also called VNAR-r2d4-Fc; not shown: Human IgG1 AEF Fc and any hinge or linker at the junction
As for B1, in assay [1], the Kd turned out to be 3 nM, the koff amounted to 0.00026 s⁻¹ and the kon turned out to be 87000 M⁻¹ s⁻¹. Further, in assay [2], the Kd is 1.7 nM, the koff came out at 0.00014 s⁻¹ and the kon came to 87000 M⁻¹ s⁻¹. In addition, in [3], the EC50 was found to be 2.1 nM.

B2: TXP1 (VNAR-txp1 fused to the N-terminus of human IgG1 Fc with attenuated effector function) (Fc fusion)
VNAR: ARVDQTPQTITKETGESLTINCVLRDSNCALSSTYWYRKKSGSTNEENISKGGRYVETVNSGSKSFSLKINDLTVEDSGTYRCNVVGTWCMSWRDVYGGGTAVTVNA
notes: Bivalent VNAR-hFc, VNAR at the N-terminus of hFc IgG1; also called VNAR-txp1-hFc; VNAR antibody TXP1; not shown: Human IgG1 Fc with AEF mutations (E233P/L234V/L235A/ΔG236+A327G/A330S/P331S), and any hinge or linker at the junction
As for B2, the figures for the EC50 in [4], in [5] and in assay [6] were 10.1 nM, 2.9 nM and 3.3 nM, respectively. In addition, the binding result with HSA, with recombinant rat TfR-1 and in the assay with recombinant mouse TfR-1 was “no binding (tested: about 2e-6 M)” in each case. Also, in assay [7], the concentration giving a half-maximal response (EC50 (read off the curve)) was about 10 nM.
